These results are taken from the Immune Epitope Database (IEDB).

The target of one test is HLA-A*32:01. Kind of test: IEDB peptide-MHC binding, purified MHC/competitive/radioactivity; filed as Kd, often an IC50 or EC50 that approximates it; ≥ and ≤ were set here for values at or beyond the usual limits of such assays.
Another test concerns the target HLA-B*44:03. The test is described as above.
The target of another test is HLA-B*40:01. Described as above.
Another test deals with HLA-B*44:02. The description is as above.
Test [1] has as its target HLA-A*01:01. Described as above.
In test [2] the target is HLA-A*01:01. Kind of test: IEDB peptide-MHC binding, purified MHC/direct/fluorescence; filed as Kd, often an IC50 or EC50 that approximates it; ≥ and ≤ were set here for values at or beyond the usual limits of such assays. Particulars: source organism: SARS-CoV1.
Another test has as its target HLA-B*58:01. Described as above. Particulars: source organism: SARS-CoV1.
The target in a further test is HLA-B*15:01. Described as above. Particulars: source organism: SARS-CoV1.
Test [3] deals with HLA-A*03:01. The test is described as above. Particulars: source organism: SARS-CoV1.
In a further test the target is HLA-A*30:02. Kind of test: IEDB peptide-MHC binding, purified MHC/competitive/radioactivity; filed as Kd, often an IC50 or EC50 that approximates it; ≥ and ≤ were set here for values at or beyond the usual limits of such assays.
A further test has as its target HLA-A*23:01. The description is as above.
The next test concerns the target HLA-A*24:02. Described as above.
A further test deals with HLA-A*26:01. The test is described as above. Particulars: source organism: SARS coronavirus Tor2.
In another test the target is HLA-A*29:02. Described as above.
A further test concerns the target HLA-B*08:01. The description is as above.
The target in another test is HLA-A*30:01. The test is described as above.
Another test deals with HLA-A*33:01. Described as above.
Another test concerns the target HLA-A*31:01. The test is described as above.
The target of another test is HLA-A*11:01. The description is as above. Particulars: source organism: Vaccinia virus WR.
For test [4], the target named is HLA-A*03:01. The description is as above. Particulars: source organism: Vaccinia virus WR.
The next test concerns the target HLA-A*68:01. The test is described as above. Particulars: source organism: Vaccinia virus WR.
[5] abbreviates: source organism: Dengue virus 4 Dominica/814669/1981.
The mark [6] stands for this setting: source organism: Dengue virus 2 Jamaica/1409/1983.
[7] abbreviates: source organism: Dengue virus 4 Philippines/H241/1956.
The mark [8] stands for this setting: source organism: SARS coronavirus Tor2.
[9] abbreviates: source organism: Dengue virus 1 Brazil/97-11/1997.
The mark [10] stands for this setting: source organism: Mammarenavirus caliense.
Setting [11] is: source organism: Vaccinia virus WR.
The mark [12] stands for this setting: source organism: Dengue virus 3 Martinique/1243/1999.
The mark [13] stands for this setting: source organism: Mammarenavirus machupoense.

pKd: −log10 of the molar value.

What is called pKd is the negative decadic logarithm of the Kd, by convention in mol/L. As to RLGYILEEI, in the test with HLA-A*32:01 (setting [5]), the pKd was 5.95.

With KETACLGKSY, in the test with HLA-B*44:03 (setting [6]), the negative logarithm of the Kd (pKd) is 7.63.

With QEVPFCSHHF, the values for the negative logarithm of the Kd (pKd) with HLA-B*44:03 (setting [7]), with HLA-B*40:01 (setting [7]) and with HLA-B*44:02 (setting [7]) were 6.74, 5.31 and 7.91, respectively.

Take MTDTTPFGQ: in the test with HLA-A*01:01 [1] (setting [7]), the negative-log Kd (pKd) is 5.42.

With AILLVAVSF, the negative-log Kd (pKd) with HLA-A*32:01 (setting [6]) was 4.89.

With CADGTRHTY, the pKd with HLA-A*01:01 [2] is 6.36; in the test with HLA-B*58:01, 5.92; in the test with HLA-B*15:01, 5.90; in the test with HLA-A*03:01 [3] it was 5.01; with HLA-A*30:02 (setting [8]), 7.40; in the test with HLA-A*23:01 (setting [8]) it was at most 4.17. Further, the pKd was at most 4.42 with HLA-A*24:02 (setting [8]), 5.56 in the test with HLA-A*26:01 and 6.02 in the test with HLA-A*29:02 (setting [8]).

Turning to KKMIRPQPM, the negative-log Kd (pKd) with HLA-B*08:01 (setting [9]) is 6.73.

On to PYENLLYKI, for which the pKd was 8.01 in the test with HLA-A*23:01 (setting [10]), 6.60 in the test with HLA-A*24:02 (setting [10]) and at most 4.28 in the test with HLA-A*29:02 (setting [10]).

For the sequence NTSANLSLA, the negative-log Kd (pKd) in the test with HLA-A*01:01 [1] (setting [7]) is 5.87.

As to ISKVRSNAA, the negative logarithm of the Kd (pKd) in the test with HLA-A*30:01 (setting [7]) is 6.15; with HLA-B*08:01 (setting [7]), 8.14.

For the sequence KTWGKAKML, the negative-log Kd (pKd) with HLA-A*32:01 (setting [6]) was 7.41.

In the case of SPKERLPYI, the pKd with HLA-B*08:01 (setting [11]) is 5.98.

Regarding QMQRKHGGML, the pKd in the test with HLA-B*08:01 (setting [9]) was 6.36.

As to REEEEAGVL, the negative-log Kd (pKd) in the test with HLA-B*40:01 (setting [6]) was 8.49.

On to TVYAKFASL, for which the pKd in the test with HLA-B*08:01 (setting [11]) is 8.79.

On to HMLEFLYSF, for which the pKd in the test with HLA-A*32:01 (setting [11]) is 9.53.

FFKCFRYVF: in the test with HLA-B*08:01 (source organism: Vaccinia virus Copenhagen), the pKd is 7.96.

Turning to STANVSLAA, the pKd with HLA-A*01:01 [1] (setting [12]) was 5.69.

In the case of PSSVAARGY, the pKd with HLA-A*01:01 [1] (setting [7]) is 6.70; in the test with HLA-A*30:02 (setting [7]) it was 5.49.

In the case of CWFADTNLI, the negative logarithm of the Kd (pKd) was 7.05 in the test with HLA-A*23:01 (setting [13]), 7.00 in the test with HLA-A*24:02 (setting [13]) and 5.89 with HLA-A*29:02 (setting [13]).

On to KITGNLVQI, for which the pKd in the test with HLA-A*32:01 (setting [7]) was 5.57.

As to RVRNIIASI, the pKd with HLA-A*30:01 (setting [11]) was 9.99; with HLA-A*32:01 (setting [11]), 8.98; in the test with HLA-B*08:01 (setting [11]) it was 7.66.

Regarding METLLLLGLM, the pKd with HLA-B*44:03 (setting [12]) is 5.58; in the test with HLA-B*40:01 (setting [12]), 5.99; with HLA-B*44:02 (setting [12]), 7.20.

Consider NDLKYSWKTW, for which the pKd in the test with HLA-A*32:01 (setting [7]) was 5.05; in the test with HLA-B*44:02 (setting [7]) it was 5.57.

In the case of MFGGVSWMIR, the values for the pKd in the test with HLA-A*33:01 (setting [5]), in the test with HLA-A*31:01 (setting [5]) and in the test with HLA-A*32:01 (setting [5]) were 7.83, 8.12 and 5.84, respectively.

For the sequence TEMGRLPTFM, the values for the pKd with HLA-B*44:03 (setting [6]) and with HLA-B*44:02 (setting [6]) were 6.78 and 7.94, respectively.

As to LVKESMASLK, the negative-log Kd (pKd) is 7.95 with HLA-A*11:01; 6.40 with HLA-A*33:01 (setting [11]); 7.19 with HLA-A*31:01 (setting [11]); 8.39 with HLA-A*03:01 [4]; 9.36 with HLA-A*68:01; at most 4.27 with HLA-A*29:02 (setting [11]).

KTWMINIMI: the negative-log Kd (pKd) with HLA-A*32:01 (setting [11]) was at most 4.11.

With KTPVESWEEV, in the test with HLA-A*32:01 (setting [6]), the pKd is 5.79.

For the sequence GFKKRVNVF, in the test with HLA-B*08:01 (setting [11]), the negative-log Kd (pKd) was 6.96.

For the sequence EEYVDYMPV, in the test with HLA-B*40:01 (setting [7]), the pKd was 6.72.

For the sequence REIVVPCRNQ, the negative-log Kd (pKd) with HLA-B*40:01 (setting [9]) was 6.64.

Take AEGVITQDDM: the pKd with HLA-B*40:01 (setting [7]) is 5.88.

As to AERTGEPDY, the negative logarithm of the Kd (pKd) with HLA-B*44:03 (setting [7]) is 6.07; with HLA-B*44:02 (setting [7]), 6.41.

On to GEKKKLRPRW, for which the pKd with HLA-B*44:03 (setting [12]) was 5.59; with HLA-B*44:02 (setting [12]), 6.47.
